# Test results: patent publication US6339070B1, “Gene construct encoding a heterologous prodrug-activating enzyme and a cell targeting moiety” (Zeneca Limited, priority 1997, dated 2002)
# “Also recorded” adds a separate entry of the source.
# B1: (A5B7 Fab-CPG2)2 fusion protein: chimaeric A5B7 anti-CEA Fab, heavy chain Fd linked via (G4S)3 linker to CPG2 R6, dimerised through CPG2 (antibody)
# heavy: EVKLVESGGGLVQPGGSLRLSCATSGFTFTDYYMNWVRQPPGKALEWLGFIGNKANGYTTEYSASVKGRFTISRDKSQSILYLQMNTLRAEDSATYYCTRDRGLRFYFDYWGQGTTLTVSSASTKGPSVFPLAPCSRSTSESTAALGCLVKDYFPEPVTVSWNSGALTSGVHTFPAVLQSSGLYSLSSVVTVPSSNFGTQTYTCNVDHKPSNTKVDKTVGGGGSGGGGSGGGGSQKRDNVLFQAATDEQPAVIKTLEKLVNIETGTGDAEGIAAAGNFLEAELKNLGFTVTRSKSAGLVVGDNIVGKIKGRGGKNLLLMSHMDTVYLKGILAKAPFRVEGDKAYGPGIADDKGGNAVILHTLKLLKEYGVRDYGTITVLFNTDEEKGSFGSRDLIQEEAKLADYVLSFEPTSAGDEKLSLGTSGIAYVQVQITGKASHAGAAPELGVNALVEASDLVLRTMNIDDKAKNLRFQWTIAKAGQVSNIIPASATLNADVRYARNEDFDAAMKTLEERAQQKKLPEADVKVIVTRGRPAFNAGEGGKKLVDKAVAYYKEAGGTLGVEERTGGGTDAAYAALSGKPVIESLGLPGFGYHSDKAEYVDISAIPRRLYMAARLIMDLGAGK
# light: QTVLSQSPAILSASPGEKVTMTCRASSSVTYIHWYQQKPGSSPKSWIYATSNLASGVPARFSGSGSGTSYSLTISRVEAEDAATYYCQHWSSKPPTFGGGTKLEIKRTVAAPSVFIFPPSDEQLKSGTASVVCLLNNFYPREAKVQWKVDNALQSGNSQESVTEQDSKDSTYSLSSTLTLSKADYEKHKVYACEVTHQGLSSPVTKSFNRGEC
# How the values were obtained:
# [1] = system: recombinant Colo320DM (CEA negative); test: Retention of secreted fusion protein on recombinant Colo320DM cells (cell based ELISA); conditions: listed as (A5B7-CPG2)2 fusion protein
# Description: (§1) The vertical axis represents optical density readings measured at 490 nm and the horizontal axis the amount of added anti-CEA antibody (IIE6) measured in ng/ml of protein. […] Firstly, the cell lines were fixed and washed to remove the existing supernatant and any unbound material after which increasing concentrations of the anti-CEA antibody (IIE6) were added to the fixed cells. The assay was developed as described in the text to determine the level of retention of any secreted material and whether further added antibody would increase the signal. […] Since the recombinant Colo320DM are CEA negative no increase in signal due to anti-CEA antibody the results for these cells would be expected. In the case of the recombinant LoVo cells the addition signal due the amounts of antibody added in this assay may be swamped except at the highest dose due to the relative strength of the original signal.
# (§2) LoVo colorectal tumour cells transfected with the (A5B7-CPG2)2 fusion protein gene have been shown both to secrete and to retain the fusion protein on their cell surface. […] The recombinant LoVo cells still gave such a strong initial signal that the added antibody made little difference to the overall signal obtained, which was considerably higher than any of the control experiments.
# [2] = system: CEA positive LoVo parental line; test: Cell based ELISA of secreted fusion protein, CEA positive cells; conditions: increasing amounts of added fusion protein, listed as (A5B7-CPG2)2 fusion protein
# Description: (§3) Cells were seeded into 96 well plates (Becton Dickinson Biocoat™ poly-D-Lysine, 35-6461) at a density of 1×10^4 cells per well in 100 μl normal culture media and left about 40 h at 37°. 100 μl of 6% formaldehyde was diluted in DMEM and left for 1 hour at 4°. Plates were centrifuged and washed 3 times in PBS containing 0.05% Tween™ by immersion soaking (first two washes for 2 minutes and the final wash for 5 minutes).
# (§4) 100 μl of doubling dilutions of cell culture supernatant containing fusion protein or chimeric A5B7 anti-CEA were added to each well as appropriate and the plates incubated overnight at 4°. The plates were washed as described above and, in the case of chimaeric fusion proteins. 100 μl of 1:1000 dilution of HRP labelled anti-human kappa antibody (Sigma A-7164) was added and incubated for 2 hours at room temperature (an anti-CPG2 detection methodology can be used in the case of murine scFv fusion proteins). The plates were washed as described above and HRP detected using OPD substrate (Sigma P-8412). Colour was allowed to develop for about 5 min, stopped with 75 μl per well of 2M H2SO4 and OD read at 490 nm.
# (§5) In the case of the (A5B7-CPG2)2 fusion protein, material was produced in the supernatant from recombinant Colo32ODM tumour cells (CEA-ve). The fusion protein content was measured by use of the CEA ELISAs described above. […]
# [3] = system: CPG2; conditions: COS-7 transient expression supernatant
# [4] = Enzyme activity in plasma samples (methotrexate turnover, HPLC); type: in vivo; conditions: except when tumour enzyme activity exceeded 2.0 U/g
# Description: To act as a standard for the assay, a CPG2 enzyme standard curve was prepared in 20% normal plasma to the following concentrations: 0.2, 0.4, 0.6, 0.8 and 1.0 U/ml. Similarly all test plasma samples were also diluted to 20% normal plasma. Further dilutions of these samples e.g. neat 1/10, 1/20 and 1/50 were also made using 20% normal serum. 200 μl aliquots of each CPG2 standard and test sample dilutions were equilibrated to 30°. 2 μl of 10 mM MTX was added to each of the tubes and mixed well. […]. The reaction was stopped after exactly 10 minutes (to increase the sensitivity of the assay the incubation time can be increased to 30 minutes) by adding 500 μl ice cold methanol+0.2% TFA and assayed for product using HPLC detection as described above in Example 10.
# [5] = system: CEA negative cell lines; test: Cell based ELISA of secreted fusion protein, CEA negative cells; conditions: increasing amounts of added fusion protein; listed as (A5B7-CPG2)2 fusion protein
# Description: as §3, §4, §5
# [6] = system: recombinant LoVo tumour cells; test: Retention of secreted fusion protein on recombinant LoVo cells (cell based ELISA); conditions: CEA positive, without added anti-CEA antibody, listed as (A5B7-CPG2)2 fusion protein
# Description: as §1, §2
molecule,measurement,setting,value
B1,retention of expressed fusion protein on cell surface (OD 490 nm),[1],some retention of the expressed fusion protein (probably non-specific); also recorded: much weaker reading than the LoVo cells but the signal was higher than background
same,binding to CEA positive cells (OD 490 nm),[2],increased levels of binding with increasing amounts of added fusion protein; also recorded: binds specifically to a CEA positive cell line in a dose dependant manner
same,CPG2 enzyme activity in cell supernatant,[3],CPG2 enzyme activity to be present in the cell supernatant
same,enzyme activity in plasma,[4],No activity was seen in the plasma
same,binding to CEA negative cells (OD 490 nm),[5],only constant background binding levels throughout; also recorded: do not bind to CEA negative lines
same,retention of expressed fusion protein on cell surface (OD 490 nm),[6],had retained the expressed fusion protein; also recorded: very strong OD 490 nm reading
